According to patent US20250152746A1, “BASE EDITING OF ANGPTL3 AND METHODS OF USING SAME FOR TREATMENT OF DISEASE” (Verve Therapeutics, Inc., priority 2020, published 2025):
In the oligonucleotide strings, read from the 5' end, every base follows the letter of its sugar. An asterisk marks phosphorothioate; unmarked linkages are phosphodiester. Other units and linkages are bracketed, terminal groups are in braces. A string of capitals states the bases alone. m = 2'-O-methyl; r = 2'-OH (RNA)

Columns and labels:
PCSK9 gene [1] = test: PCSK9 gRNA/SpCas9 editing in primary human hepatocytes (Tables 2, 4); type: cell-based; details: SpCas9 mRNA MS002 1:1 by weight; for Human Primary Hepatocyte Editing % 100: 100 ng/RNA/mL; for Human Primary Hepatocyte Editing % 500: 500 ng/RNA/mL; for Human Primary Hepatocyte Editing % 2500: 2500 ng/RNA/mL; for % Editing, day 3 / % Editing, day 5: modified gRNA; for % Editing, day 3: day 3 post transfection; for % Editing, day 5: day 5 post transfection
Procedure: (§1) In set of experiments, PCSK9 gRNAs were co-transfected with an equivalent amount (1:1 ratio by weight) of in vitro transcribed commercially available SpCas9 mRNA MS002 purchased from TriLink Biotechnologies into primary human hepatocytes at 2500, 500, or 100 ng/RNA/mL and processed as described in detailed methods. Extracted genomic DNA was analyzed for gene editing at the target site with next-generation sequencing of PCR amplicons generated around the target sites. Samples were prepared using the Nextera XT DNA library preparation kit (Illumina) according to the manufacturer's protocol. Briefly, two rounds of PCR were performed first to amplify the region of interest and second to add DNA sequences required for next generation sequencing and sample identification to the initial product. The final amplicon was sequenced on the Illumina MiSeq instrument according to the manufacturer's protocol. A wide range of editing activities (Table 2) were observed. In a second set of experiments, ANGPTL3 gRNAs were co-transfected with an equivalent amount of in vitro transcribed SpCas9 mRNA (1:1 ratio by weight) into primary human hepatocytes and processed and analyzed similarly (Table 3).
PCSK9 gRNAs were co-transfected with an equivalent amount of in vitro transcribed SpCas9 mRNA MS002 (1:1 ratio by weight) into primary human hepatocytes and processed as described in detailed methods. A wide range of editing activities were observed (Table 4; ND=Not determined). The guides with the highest editing activity at five days post transfection were GA001, GA002, GA007, and GA008.
Human primary hepatocytes were transfected at 2500, 1250, 500, and 250 ng/test article/mL with SpCas9 mRNA MS002 and a gRNA targeting PCSK9 with modifications to the tracr. Genomic DNA was processed, sequenced, and analyzed as described in the detailed methods section. GA156 was transfected to serve as a positive control.
Plating, culturing, and transfection of primary hepatocytes. Primary human liver hepatocytes (PHH) and primary cynomolgus liver hepatocytes (PCH) from BioIVT were cultured per the manufacturer's protocol. Briefly, primary human hepatocytes and primary cyno hepatocytes were obtained as frozen aliquots from BioIVT. Four lots of primary human hepatocytes, each derived from a de-identified individual donor, were used for the experiments: STL (main donor) was used for all experiments, including screening experiments and off-target experiments; HLY, JLP, and TLY were used for off-target experiments. The HFG lot of primary cyno hepatocytes were used for experiments. Following the manufacturer's instructions, cells were thawed and rinsed prior to plating in 24-well plates that had been coated with bovine collagen overnight, with a density of approximate 350,000 cells/well in INVITROGRO hepatocyte medium supplemented with TORPEDO antibiotic mix (BioIVT). The cells were thawed and resuspended in hepatocyte thawing medium followed by centrifugation at 100 g for 10 min at 4° C. The supernatant was discarded, and the pelleted cells resuspended in hepatocyte plating medium. Each vial contains approximately 5 million cells that were used for plating one 24-well plate. Plated cells were allowed to settle and adhere for 4-6 h in a tissue culture incubator at 37° C. under 5% CO2 atmosphere. After incubation, cells were checked for monolayer formation. The incubating media were then replaced with fresh hepatocyte maintenance media (complete INVITROGRO medium obtained from BioIVT, the cell line provider). The cells thus became ready for transfection. Each of the gRNAs were co-transfected with an equivalent amount of in vitro transcribed ABE8.8 mRNA (1:1 ratio by molecular weight) into primary human hepatocytes via MessengerMax reagent (Lipofectamine), using various dilutions to assess for editing activity at different concentrations of test article. MessengerMAX from Thermo Fisher is used for transfection. […]

PCSK9 gene [2] = test: PCSK9 gRNA/SpCas9 editing in primary cynomolgus hepatocytes (Tables 2, 22); type: cell-based, cynomolgus monkey; details: SpCas9 mRNA MS002 1:1 by weight; for Cyno Primary Hepatocyte Editing % 100: 100 ng/RNA/mL; for Cyno Primary Hepatocyte Editing % 500: 500 ng/RNA/mL; for Cyno Primary Hepatocyte Editing % 2500: 2500 ng/RNA/mL
Procedure: as §1
[…] Genomic DNA was processed, sequenced, and analyzed as described in the detailed methods section. GA266 was transfected independently twice to serve as two positive controls.
Plating, culturing, and transfection of primary hepatocytes. Primary human liver hepatocytes (PHH) and primary cynomolgus liver hepatocytes (PCH) from BioIVT were cultured per the manufacturer's protocol. Briefly, primary human hepatocytes and primary cyno hepatocytes were obtained as frozen aliquots from BioIVT. Four lots of primary human hepatocytes, each derived from a de-identified individual donor, were used for the experiments: STL (main donor) was used for all experiments, including screening experiments and off-target experiments; HLY, JLP, and TLY were used for off-target experiments. The HFG lot of primary cyno hepatocytes were used for experiments. Following the manufacturer's instructions, cells were thawed and rinsed prior to plating in 24-well plates that had been coated with bovine collagen overnight, with a density of approximate 350,000 cells/well in INVITROGRO hepatocyte medium supplemented with TORPEDO antibiotic mix (BioIVT). The cells were thawed and resuspended in hepatocyte thawing medium followed by centrifugation at 100 g for 10 min at 4° C. The supernatant was discarded, and the pelleted cells resuspended in hepatocyte plating medium. Each vial contains approximately 5 million cells that were used for plating one 24-well plate. Plated cells were allowed to settle and adhere for 4-6 h in a tissue culture incubator at 37° C. under 5% CO2 atmosphere. After incubation, cells were checked for monolayer formation. The incubating media were then replaced with fresh hepatocyte maintenance media (complete INVITROGRO medium obtained from BioIVT, the cell line provider). The cells thus became ready for transfection. Each of the gRNAs were co-transfected with an equivalent amount of in vitro transcribed ABE8.8 mRNA (1:1 ratio by molecular weight) into primary human hepatocytes via MessengerMax reagent (Lipofectamine), using various dilutions to assess for editing activity at different concentrations of test article. MessengerMAX from Thermo Fisher is used for transfection. Solution A: desired amount of guide RNA is mixed with 1:1 wt ratio of mRNA in OptiMEM. Solution B: MessengerMAX in OptiMEM. After mixing solutions A and B, the mixture was incubated at room temperature for 20 min. 60 μL of the incubated solution was added dropwise to each cell wells. For protospacer sequences that were a perfect match to the corresponding cynomolgous monkey PCSK9 or ANGPTL3 gene sequence, each gRNA was also co-transfected with an equivalent amount of ABE8.8 mRNA (1:1 ratio by molecular weight) into primary cynomolgous hepatocytes, and followed the same transfection protocol. […]

B1: GA187: PCSK9 gRNA; protospacer CTCCTCGATGTAGTCGACAT (SEQ ID NO: 181) (nucleic acid)
guide: mC*mU*mC*rCrUrCrGrArUrGrUrArGrUrCrGrArCrArUrGrUrUrUrUrArGrArGrCrUrArGrArArArUrArGrCrArArGrUrUrArArArArUrArArGrGrCrUrArGrUrCrCrGrUrUrArUrCrArArCrUrUrGrArArArArArGrUrGrGrCrArCrCrGrArGrUrCrGrGrUrGrCrU*mU*mU*mU
- Human Primary Hepatocyte Editing % 100 (PCSK9 gene [1]): 2.44%
- Human Primary Hepatocyte Editing % 500 (PCSK9 gene [1]): 6.47%
- Cyno Primary Hepatocyte Editing % 100 (PCSK9 gene [2]): 3.77%
- Cyno Primary Hepatocyte Editing % 500 (PCSK9 gene [2]): 12.30%
- Cyno Primary Hepatocyte Editing % 2500 (PCSK9 gene [2]): 29.24%

B2: GA188: PCSK9 gRNA; protospacer TATTCATCCGCCCGGTACCG (SEQ ID NO: 182) (nucleic acid)
guide: mU*mA*mU*rUrCrArUrCrCrGrCrCrCrGrGrUrArCrCrGrGrUrUrUrUrArGrArGrCrUrArGrArArArUrArGrCrArArGrUrUrArArArArUrArArGrGrCrUrArGrUrCrCrGrUrUrArUrCrArArCrUrUrGrArArArArArGrUrGrGrCrArCrCrGrArGrUrCrGrGrUrGrCrU*mU*mU*mU
- Human Primary Hepatocyte Editing % 100 (PCSK9 gene [1]): 4.21%
- Human Primary Hepatocyte Editing % 500 (PCSK9 gene [1]): 15.38%
- Human Primary Hepatocyte Editing % 2500 (PCSK9 gene [1]): 41.02%
- Cyno Primary Hepatocyte Editing % 100 (PCSK9 gene [2]): 0.01%
- Cyno Primary Hepatocyte Editing % 500 (PCSK9 gene [2]): 0.01%
- Cyno Primary Hepatocyte Editing % 2500 (PCSK9 gene [2]): 0.06%

B3: GA189: PCSK9 gRNA; protospacer TCCTCGATGTAGTCGACATG (SEQ ID NO: 183) (nucleic acid)
guide: mU*mC*mC*rUrCrGrArUrGrUrArGrUrCrGrArCrArUrGrGrUrUrUrUrArGrArGrCrUrArGrArArArUrArGrCrArArGrUrUrArArArArUrArArGrGrCrUrArGrUrCrCrGrUrUrArUrCrArArCrUrUrGrArArArArArGrUrGrGrCrArCrCrGrArGrUrCrGrGrUrGrCrU*mU*mU*mU
- Human Primary Hepatocyte Editing % 100 (PCSK9 gene [1]): 1.76%
- Human Primary Hepatocyte Editing % 500 (PCSK9 gene [1]): 8.94%
- Human Primary Hepatocyte Editing % 2500 (PCSK9 gene [1]): 31.23%
- Cyno Primary Hepatocyte Editing % 100 (PCSK9 gene [2]): 3.30%
- Cyno Primary Hepatocyte Editing % 500 (PCSK9 gene [2]): 15.58%
- Cyno Primary Hepatocyte Editing % 2500 (PCSK9 gene [2]): 41.70%

B4: GA191: PCSK9 gRNA; protospacer GCCCCATGTCGACTACATCG (SEQ ID NO: 185) (nucleic acid)
guide: mG*mC*mC*rCrCrArUrGrUrCrGrArCrUrArCrArUrCrGrGrUrUrUrUrArGrArGrCrUrArGrArArArUrArGrCrArArGrUrUrArArArArUrArArGrGrCrUrArGrUrCrCrGrUrUrArUrCrArArCrUrUrGrArArArArArGrUrGrGrCrArCrCrGrArGrUrCrGrGrUrGrCrU*mU*mU*mU
- Human Primary Hepatocyte Editing % 100 (PCSK9 gene [1]): 3%
- Human Primary Hepatocyte Editing % 500 (PCSK9 gene [1]): 12.2%
- Human Primary Hepatocyte Editing % 2500 (PCSK9 gene [1]): 34.6%
- Cyno Primary Hepatocyte Editing % 100 (PCSK9 gene [2]): 5.46%
- Cyno Primary Hepatocyte Editing % 500 (PCSK9 gene [2]): 26.79%
- Cyno Primary Hepatocyte Editing % 2500 (PCSK9 gene [2]): 51.79%

B5: GA005: PCSK9 gRNA, GA156 spacer with modifications to the tracrRNA sequence (nucleic acid)
guide: GGTGCTAGCCTTGCGTTCCGGTTTTAGAGCTAGAAATAGCAAGTTAAAATAAGGCTAGTCCGTTATCAACTTGAAAAAGTGGCACCGAGTCGGTGCTTTTT
modifications: chemistry not given here
- % Editing, day 3 (PCSK9 gene [1]): 1%
- % Editing, day 5 (PCSK9 gene [1]): 15%

B6: GA006: PCSK9 gRNA, GA156 spacer with modifications to the tracrRNA sequence (nucleic acid)
guide: rG*rG*rU*rGrCrUrArGrCrCrUrUrGrCrGrUrUrCrCrGmGrUrUrUrUrArGmAmGmCmUmAmGmAmAmAmUmAmGmCmAmArGrUrUmArAmArAmUrAmAmGmGmCmUmArGrUmCmCrGrUrUrAmUmCrArAmCmUmUmGmAmAmAmAmAmGmUmGrGmCmAmCmCmGmAmGmUmCmGmGmUmGmCmU*mU*mU*mU
- % Editing, day 5 (PCSK9 gene [1]): 12%

B7: GA009: minimally modified control gRNA, PCSK9 (nucleic acid)
guide: mG*mG*mU*rGrCrUrArGrCrCrUrUrGrCrGrUrUrCrCrGrGrUrUrUrUrArGrArGrCrUrArGrArArArUrArGrCrArArGrUrUrArArArArUrArArGrGrCrUrArGrUrCrCrGrUrUrArUrCrArArCrUrUrGrArArArArArGrUrGrGrCrArCrCrGrArGrUrCrGrGrUrGrCrU*mU*mU*mU
- % Editing, day 3 (PCSK9 gene [1]): 4%
- % Editing, day 5 (PCSK9 gene [1]): 19%

B8: GA001: PCSK9 gRNA, GA156 spacer with modifications to the tracrRNA sequence (nucleic acid)
guide: rG*rG*rU*rGrCrUrArGrCrCrUrUrGrCrGrUrUrCrCrGrGrUrUrUrUrArGrAmGmCmUmAmGmAmAmAmUmAmGmCrArArGrUrUrArArArArUrArArGrGrCrUrArGrUrCrCrGrUrUrArUrCrAmAmCmUmUmGmAmAmAmAmAmGmUmGmGmCmAmCmCmGmAmGmUmCmGmGmUmGmCmU*mU*mU*mU
- % Editing, day 3 (PCSK9 gene [1]): 16%
- % Editing, day 5 (PCSK9 gene [1]): 27%

B9: GA002: PCSK9 gRNA, GA156 spacer with modifications to the tracrRNA sequence (nucleic acid)
guide: GGTGCTAGCCTTGCGTTCCGGTTTTAGAGCTAGAAATAGCAAGTTAAAATAAGGCTAGTCCGTTATCAACTTGAAAAAGTGGCACCGAGTCGGTGCTTTT
modifications: listed as RNA; modified_base 1: mod_base = OTHER; note = 2'-O-Methyl-guanosine phosphorothioate; modified_base 2: mod_base = OTHER; modified_base 3: mod_base = OTHER; note = 2'-O-Methyl-uridine phosphorothioate
- % Editing, day 3 (PCSK9 gene [1]): 28%
- % Editing, day 5 (PCSK9 gene [1]): 23%

B10: GA003: PCSK9 gRNA, GA156 spacer with modifications to the tracrRNA sequence (nucleic acid)
guide: mG*mG*mU*rGrCrUrArGrCrCrUrUrGrCrGrUrUrCrCrGrGrUrUrUrU*rArGrAmGmCmUmAmGmAmAmAmUmAmGmCrArArGrUrU*rArArArArU*rArArGrGrCrU*rArGrUrCrCrGrUrU*rArUrC*rAmAmCmUmUmGmAmAmAmAmAmGmUmGmGmCmAmCmCmGmAmGmUmCmGmGmUmGmCmU*mU*mU*mU
- % Editing, day 5 (PCSK9 gene [1]): 7%

B11: GA004: PCSK9 gRNA, GA156 spacer with modifications to the tracrRNA sequence (nucleic acid)
guide: mG*mG*mU*rGrCrUrArGrCrCrUrUrGrCrGrUrUrCrCrGmGrUrUrUrUrArGmAmGmCmUmAmGmAmAmAmUmAmGmCmAmArGrUrUmArAmArAmUrAmAmGmGmCmUmArGrUmCmCrGrUrUrAmUmCrArAmCmUmUmGmAmAmAmAmAmGmUmGrGmCmAmCmCmGmAmGmUmCmGmGmUmGmCmUmUmUmUmU
- % Editing, day 3 (PCSK9 gene [1]): 7%
- % Editing, day 5 (PCSK9 gene [1]): 12%
